In patent publication US10047131B2, “Peptides and combination of peptides for use in immunotherapy against ovarian cancer and other cancers” (immatics biotechnologies GmbH, priority 2015, dated 2018):

Molecular target: HLA-A*02:01 (Homo sapiens, UniProt P04439, D140Y/D185E/D98H/E176V/E277Q/G131W/G231S/I119V/I121R/I166T/I218V/L300P/L318F/N151K/N90K/P208A/P217A/Q86G/Q94H/R138H/R169H/T345S)
Assay: MHC binding assay (UV-ligand exchange, ELISA of exchange yield)
Details: binding to HLA-A*02:01, UV-ligand exchange
Summary of the method: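 Peptide–MHC complexes made by UV-ligand exchange, where a UV-cleavable peptide is replaced by the test peptide. Exchange yield measured by ELISA: complexes diluted 100-fold on streptavidin-coated plates, stabilized complexes detected with HRP anti-β2m, TMB read at 450 nm.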

Substance	Peptide exchange (MHC class I binding score, peptide exchange yield)
331 (KVDTVWVNV; listed as Homo sapiens) [compound 331]	“+++” (≥50 = +++)
286 (YLFPGIPEL; listed as Homo sapiens) [compound 286]	“+++” (≥50 = +++)
600 (ALAAPDIVPAL; listed as Homo sapiens) [compound 600]	“+++” (≥50 = +++)
129 (GLLDGGVDILL; listed as Homo sapiens) [compound 129]	“+++” (≥50 = +++)
570 (ALANQIPTV; listed as Homo sapiens) [compound 570]	“++” (≥20% = ++)
511 (FLDPYCSASV; listed as Homo sapiens) [compound 511]	“++” (≥20% = ++)
62 (VLLDVSAGQLLM; listed as Homo sapiens) [compound 62]	“++++” (≥75% = ++++)
285 (QLLHVGVTV; listed as Homo sapiens) [compound 285]	“+++” (≥50 = +++)
539 (ALFDAQAQV; listed as Homo sapiens) [compound 539]	“+++” (≥50 = +++)
99 (ALVSKGLATV; listed as Homo sapiens) [compound 99]	“++” (≥20% = ++)
114 (SLVGEPILQNV; listed as Homo sapiens) [compound 114]	“++” (≥20% = ++)
41 (SLMPHIPGL; listed as Homo sapiens) [compound 41]	“+++” (≥50 = +++)
110 (FLSQVDFEL; listed as Homo sapiens) [compound 110]	“+++” (≥50 = +++)
298 (VMITKLVEV; listed as Homo sapiens) [compound 298]	“+++” (≥50 = +++)
111 (YVWGFYPAEV; listed as Homo sapiens) [compound 111]	“+++” (≥50 = +++)
262 (LLWGDLIWL; listed as Homo sapiens) [compound 262]	“+++” (≥50 = +++)
486 (AVMESIQGV; listed as Homo sapiens) [compound 486]	“+++” (≥50 = +++)
192 (KMLDGASFTL; listed as Homo sapiens) [compound 192]	“+++” (≥50 = +++)
403 (KLYDRILRV; listed as Homo sapiens) [compound 403]	“++” (≥20% = ++)
52 (FLLAHGLGFLL; listed as Homo sapiens) [compound 52]	“++++” (≥75% = ++++)
94 (YLIDIKTIAI; listed as Homo sapiens) [compound 94]	“++” (≥20% = ++)
297 (VLADIELAQA; listed as Homo sapiens) [compound 297]	“+++” (≥50 = +++)
458 (SLIDKLYNI; listed as Homo sapiens) [compound 458]	“++” (≥20% = ++)

Substance	Peptide exchange (MHC class I binding score, peptide exchange yield)
503 (SLNHFTHSV; listed as Homo sapiens) [compound 503]	“+++” (≥50 = +++)
191 (LLQEGQALEYV; listed as Homo sapiens) [compound 191]	“++” (≥20% = ++)
388 (SLTIDGIRYV; listed as Homo sapiens) [compound 388]	“+++” (≥50 = +++)
60 (SLTIDGIYYV; listed as Homo sapiens) [compound 60]	“++++” (≥75% = ++++)
554 (LLMPSSEDLLL; listed as Homo sapiens) [compound 554]	“+++” (≥50 = +++)
145 (FLATSGTLAGI; listed as Homo sapiens) [compound 145]	“++” (≥20% = ++)
324 (FLYDEIEAEV; listed as Homo sapiens) [compound 324]	“+++” (≥50 = +++)
506 (KLLGKVETA; listed as Homo sapiens) [compound 506]	“+++” (≥50 = +++)
284 (ILLSQTTGV; listed as Homo sapiens) [compound 284]	“+++” (≥50 = +++)
53 (KMIETDILQKV; listed as Homo sapiens) [compound 53]	“++++” (≥75% = ++++)
493 (GLLGEKTQDLIGV; listed as Homo sapiens) [compound 493]	“+++” (≥50 = +++)
621 (VLMDRLPSLL; listed as Homo sapiens) [compound 621]	“++++” (≥75% = ++++)
579 (NLMEMVAQL; listed as Homo sapiens) [compound 579]	“++” (≥20% = ++)
86 (NLIGKIENV; listed as Homo sapiens) [compound 86]	“+++” (≥50 = +++)
61 (FLQGYQLHL; listed as Homo sapiens) [compound 61]	“++++” (≥75% = ++++)
573 (ILVANAIVGV; listed as Homo sapiens) [compound 573]	“+++” (≥50 = +++)
279 (ALWGGTQPLL; listed as Homo sapiens) [compound 279]	“++” (≥20% = ++)
522 (TLWYRSPEV; listed as Homo sapiens) [compound 522]	“++” (≥20% = ++)
322 (TLMTSLPAL; listed as Homo sapiens) [compound 322]	“+++” (≥50 = +++)
6 (VLVSDGVHSV; listed as Homo sapiens) [compound 6]	“+++” (≥50 = +++)
337 (HLLSELEAAPYL; listed as Homo sapiens) [compound 337]	“++++” (≥75% = ++++)
29 (KMLGIPISNILMV; listed as Homo sapiens) [compound 29]	“+++” (≥50 = +++)
135 (ALSEVDFQL; listed as Homo sapiens) [compound 135]	“+++” (≥50 = +++)

Substance	Peptide exchange (MHC class I binding score, peptide exchange yield)
471 (YLYNNMIAKI; listed as Homo sapiens) [compound 471]	“+++” (≥50 = +++)
148 (ALNPEIVSV; listed as Homo sapiens) [compound 148]	“++” (≥20% = ++)
87 (ALPEAPAPLLPHIT; listed as Homo sapiens) [compound 87]	“++” (≥20% = ++)
328 (ALNDQVFEI; listed as Homo sapiens) [compound 328]	“+++” (≥50 = +++)
524 (ALIENLTHQI; listed as Homo sapiens) [compound 524]	“++” (≥20% = ++)
278 (QLLDVVLTI; listed as Homo sapiens) [compound 278]	“++” (≥20% = ++)
205 (SLYPGTETMGL; listed as Homo sapiens) [compound 205]	“+++” (≥50 = +++)
187 (RQISIRGIVGV; listed as Homo sapiens) [compound 187]	“+++” (≥50 = +++)
137 (TLVLTLPTV; listed as Homo sapiens) [compound 137]	“++++” (≥75% = ++++)
126 (VLAYFLPEA; listed as Homo sapiens) [compound 126]	“++++” (≥75% = ++++)
520 (LAVHPSGVAL; listed as Homo sapiens) [compound 520]	“+” (≥10% = +)
447 (QLVPALAKV; listed as Homo sapiens) [compound 447]	“++” (≥20% = ++)
185 (FLIDDKGYTL; listed as Homo sapiens) [compound 185]	“++” (≥20% = ++)
17 (GLLPGDRLVSV; listed as Homo sapiens) [compound 17]	“+++” (≥50 = +++)
69 (FQLDPSSGVLVTV; listed as Homo sapiens) [compound 69]	“+++” (≥50 = +++)
104 (STMEQNFLL; listed as Homo sapiens) [compound 104]	“++++” (≥75% = ++++)
487 (LLINSVFHV; listed as Homo sapiens) [compound 487]	“+++” (≥50 = +++)
271 (LVYPLELYPA; listed as Homo sapiens) [compound 271]	“+++” (≥50 = +++)
358 (ALDEYTSEL; listed as Homo sapiens) [compound 358]	“++++” (≥75% = ++++)
455 (SLLKEPQKVQL; listed as Homo sapiens) [compound 455]	“++” (≥20% = ++)
55 (SLLDLETLSL; listed as Homo sapiens) [compound 55]	“++++” (≥75% = ++++)
